Measurements taken from the supplement of paper PMC12855868.

B1: library; numbered along this chain (parent)
chain: MAAAGGARLLRAASAVLGGPAGRWLHHAGSRAGSSGLLRNRGPGGSAEASRSLSVSARARSSSEDKITVHFINRDGETLTTKGKVGDSLLDVVVENNLDIDGFGACEGTLACSTCHLIFEDHIYEKLDAITDEENDMLDLAYGLTDRSRLGCQICLTKSMDNMTVRVPETVADARQSIDVGKTS

Variants of: B1
Experiment: scaled log2 fold change in cell abundance, elesclomol vs control (0 = silent mean, 1 = nonsense mean) (scaled log2 ratio); higher = higher viability under elesclomol (loss of FDX1 cuproptosis function)
Conditions: glucose 10 mM
[1] = with ABC1 FDX1 KO, elesclomol 5 nM, 14 days
[2] = with HEK293T FDX1 KO, elesclomol 40 nM, 11 days
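Further: variant abundance is its share of total variant reads in each endpoint sample, from next-generation sequencing of the integrated ORF PCR-amplified out of genomic DNA.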

Variant | scaled log2 fold change [1] | scaled log2 fold change [2]
V69S | 0.684 | 0.329
V69M | 0.273 | -0.0634
R58Y | -0.339 | -0.258
Q176N | -0.0287 | 1.21
T157L | -0.0209 | -0.588
T157N | -0.181 | –
L53V | 0.281 | -0.11
L53T | 0.163 | -0.488
L53S | -0.175 | 0.73
L53N | 0.146 | –
L53E | 0.206 | -0.803
R39K | -0.687 | -0.451
R39P | -0.972 | -0.296
R39Q | -0.432 | 0.178
E120Q | -0.192 | 0.816
E120C | 0.227 | -0.059
A174V | 0.037 | -0.188
A174Q | -0.051 | –
G5M | 0.245 | -0.441
I178A | -0.325 | 0.476
I178S | 0.197 | 0.0683
I178H | -0.366 | 0.244
E133Y | -0.281 | 0.898
E133N | -0.113 | -0.0813

Variant | scaled log2 fold change [1] | scaled log2 fold change [2]
L117A | 0.00712 | 0.115
L117Q | 1.05 | 0.896
G104C | 0.959 | 1.19
G104K | 0.879 | 0.468
S63M | 0.124 | -0.609
V93Y | -0.0809 | 1.12
V93L | 0.0816 | 0.422
S50M | -0.234 | –
S50G | 0.758 | –
I118F | -0.0055 | -0.412
R175E | 0.417 | 0.643
R175C | -0.0756 | 0.45
R175W | 0.307 | -0.0023
A3I | 0.134 | -0.0748
A3W | 0.38 | 0.562
N135A | -0.0811 | -0.437
N135M | -0.00864 | -0.104
L98G | 0.225 | 0.327
L98D | 0.341 | 0.871
A59E | -0.245 | 0.171
A59Y | 0.0878 | -0.306
K82E | 0.0245 | -0.309
S148G | -0.0749 | -0.519
S148P | 0.532 | 0.268

Variant | scaled log2 fold change [1] | scaled log2 fold change [2]
E134W | 1.07 | 1.32
E134S | 0.926 | 0.571
E134T | 1.02 | 0.834
E134H | 0.345 | 0.225
I100G | -0.02 | 0.208
L127T | 0.249 | -0.0113
L127S | 0.442 | 0.345
H70N | 0.0583 | -0.00885
H70E | 0.148 | 0.829
L150V | 0.447 | -0.147
A49W | 0.372 | -0.679
G76F | -0.264 | -0.273
G76E | -0.688 | 0.0105
G76Y | -0.241 | 0.296
G83I | 0.557 | 0.712
D179I | -0.885 | 0.926
A2V | 0.0325 | 0.473
S113A | 0.165 | -0.251
P168S | 0.106 | 0.443
P168T | 0.449 | -0.142
P168E | 0.408 | -0.105
T164M | -0.076 | -0.072
C106M | 1.1 | 1.09
G45L | 0.411 | -0.007

Variant | scaled log2 fold change [1] | scaled log2 fold change [2]
G45V | 0.149 | -0.648
N97C | -0.382 | -0.308
A15I | -0.367 | -0.0209
S177C | -0.309 | –
S177Y | -1.05 | 0.126
S177V | -0.287 | 0.49
S177M | -0.566 | 0.0434
P43Y | 0.138 | 0.846
P43C | -0.0655 | 0.841
P43Q | 0.274 | -0.32
T170E | 0.0373 | -0.644
L90Y | -0.103 | –
L90E | 0.187 | 0.205
L90N | 0.293 | -0.049
S88G | 0.17 | 0.309
S88C | 0.057 | 1.32
S52Q | 0.212 | 1.17
S184L | -0.241 | 0.57
I72R | -0.783 | 0.539
K158H | 0.174 | -0.704
L138G | 0.706 | 0.389
L156V | -0.38 | 0.664
D121A | -0.0978 | 0.0802
N73G | 0.582 | 0.401

Variant | scaled log2 fold change [1] | scaled log2 fold change [2]
N73P | 0.17 | -0.147
N73R | 0.219 | -0.254
D75T | -0.752 | 0.0498
S62D | 0.269 | 1.05
G102F | -0.00949 | -0.289
G102Y | 0.333 | -0.0235
M137P | -0.0177 | -0.842
R60A | 0.137 | –
R60L | 0.042 | -0.384
R60I | 0.0411 | –
K126T | -0.51 | -0.395
K126E | -0.285 | 0.945
T145D | -0.00306 | -0.25
T145L | 0.169 | 0.152
A32I | 0.101 | 0.722
A32T | -0.266 | –
P20G | 0.37 | –
A47C | 0.788 | 1.53
A47F | 0.852 | 1.03
A47D | 0.728 | 0.746
L37K | 0.0656 | -0.805
G151W | 1.06 | 1.38
G151L | 1 | 0.743
G151E | 1.06 | 1.01

Variant | scaled log2 fold change [1] | scaled log2 fold change [2]
Q153C | -0.163 | -0.668
Q153W | 0.543 | 0.414
Q153A | 0.0247 | -0.209
M163Q | 0.357 | -0.237
M163C | -0.512 | 0.319
R41S | -0.22 | 0.473
T183V | 0.00691 | -0.191
T183M | -0.197 | -0.119
T68F | -0.000655 | 0.914
T68D | 0.0867 | 0.164
E107V | 0.145 | 0.849
E107A | 0.00703 | -0.202
L25V | 0.553 | –
D132G | -0.0468 | 0.9
Y124G | -0.0904 | 0.69
L89G | 0.853 | 0.301
L89S | 1.06 | 0.924
H122R | -0.313 | 0.00681
H122E | 0.137 | –
H122S | -0.554 | –
L38Q | -0.878 | -0.206
L38E | 0.019 | 0.931
L38H | 0.153 | 0.35
T81A | 0.0513 | 1.11

Variant | scaled log2 fold change [1] | scaled log2 fold change [2]
G36V | -0.491 | -0.262
G36Y | 0.0493 | -0.0699
D91K | -0.39 | -0.0722
D91N | 0.109 | -0.0567
A105W | -0.156 | 0.135
A105S | -0.302 | 0.253
A105F | 0.0682 | 0.146
G108I | 1.05 | 1.37
T131H | -0.186 | 0.267
D146C | 0.0801 | 0.758
D146Q | -0.0405 | -0.462
T78K | 0.447 | -1.09
T78D | 0.00307 | -0.427
T78Y | -0.386 | -0.209
H27A | -0.0135 | 0.337
H27V | 0.305 | 0.364
D87M | 0.055 | -0.441
D87H | -0.183 | 0.121
D173G | 0.473 | -0.138
G22T | -0.511 | -0.29
C112Q | 1.01 | 1.1
G181Q | -0.419 | -0.21
G181H | -0.157 | 0.112
N96W | -0.0659 | -0.145

Variant | scaled log2 fold change [1] | scaled log2 fold change [2]
S54H | -0.807 | –
S54E | -0.297 | 0.751
R11A | 0.289 | -0.22
R11K | 0.0892 | 1.03
R11W | 0.0433 | 0.0594
R11G | 0.36 | -0.443
G86I | 0.576 | 0.0646
E169Q | -0.166 | 0.849
R8S | 0.0501 | -0.479
V16T | 0.119 | -0.636
G143F | -0.335 | 0.343
G143Q | -0.167 | 0.225
G143N | -0.705 | 0.0112
G143M | 0.337 | -0.813
G143K | -1.13 | 0.329
G143W | -0.202 | -0.602
R166E | -0.677 | -0.967
G44F | -0.255 | -0.00392
D136M | 0.136 | -0.421
D136F | 0.493 | -0.85
R147W | 0.275 | -0.126
D65V | 0.161 | -0.27
D65F | -0.512 | -0.119
A57F | -0.681 | -0.202

Variant | scaled log2 fold change [1] | scaled log2 fold change [2]
T109F | -0.985 | -0.223
T80C | 0.0285 | -0.291
A13M | -0.148 | 0.232
V180R | -0.02 | -0.285
V180H | -0.37 | 1.19
V180C | 0.235 | 0.216
G42C | 0.12 | 0.316
I154N | 0.748 | 0.148
D99T | 0.182 | -0.092
I123N | -0.867 | -0.142
E64Q | -0.0857 | -0.107
V55F | 0.0901 | -0.339
V55G | 0.169 | -0.106
K182D | 0.0891 | –
K182N | 0.127 | 0.75
K182V | -0.251 | 0.182
I67R | 0.504 | 0.363
I67H | 0.608 | 0.601
D101A | -0.221 | -0.578
R31N | -0.000941 | –
R31Q | 0.031 | 0.166
R31E | -0.00724 | –
S35Q | 0.169 | 0.0163
F119P | 0.974 | 0.628

Variant | scaled log2 fold change [1] | scaled log2 fold change [2]
F119C | 0.133 | 0.831
F119T | 0.311 | 0.547
L110C | 0.439 | -1.38
L110D | 0.955 | 0.687
S61E | 0.468 | –
S159Y | -0.0652 | -0.463
T114L | 0.463 | 0.0445
A7N | -0.22 | 0.0857
D161P | 0.586 | 0.0492
F103C | 0.693 | 0.536
F103T | 1.16 | 0.355
G19A | -0.167 | -0.0193
G19M | -0.0059 | -0.191
G19Y | 0.187 | -0.867
C115D | 1.16 | 0.979
C115Q | 0.93 | 1.07
S56C | -0.222 | -0.162
S56P | 0.19 | –
K84D | -0.0908 | 0.0439
K84R | -0.138 | -0.784
K84Y | -0.449 | 0.782
